Assay results published in a protein production outcome set (Wang et al. 2014).

Test: label from the status in PepcDB records

| Sequence | protein production |
| --- | --- |
| MSNALKSIDFRTNKSKDAVIVVELASPAAIVDVKRVQEGLSIDLMNTSVKDEQLYLLDVKDFATVVESVEVFRDTSTTRLVAYIDEEYTHDYRLTGRYLEITVSKLKPNEKVPDKSILEKEGKLISINFQDIPVRNVLQLIADYNQFNLVVSDSVEGNLTLRLDGVPWQQVLDIILQVKGLDKRVDGNVILVAPTDELDLREKQQLEKQKLTEEMGELSSEIIKVNFAKASDIAEMINGEGNISMLSERGSMTIDERTNSLLIRELPENIAVIREIIESLDIPVKQVQIEARIVTISEGNMDELGIRWGFTSINGNNTVGGSIENNLATIGLYEGGGDGEGEEGGVGIDDFLNVNLAATNPNAASIAFQVAKLGSDTLLDLELSALQQESKAEIISSPRLITTNKKPAYIEQGTEIPYLESSSSGATSVTFKKAVLSLKVTPQITPDNRLVLDLSVTQDRPGKVVKTGTGEAMAIDTQRIGTQVLVNNGETVVLGGIFQHSITNSVDKVPLLGDLPLLGALFRRSYENVGKSELLIFVTPKVVIQLEHHHHHH | not failed |
| MSNANPDTTAAEAHRRRTFAVIAHPDAGKSTLTEALALHAHIISEAGATHGKAGRKATVSDWMEMEKDRGISIASSALQFEYAPEGHAGEPFMINLVDTPGHADFSEDTYRVLMAVDAAVMLIDAAKGLEPQTLQLFRVCKARGLPIITVINKWDRVGRTPLELVDEIVKEIELQPTPLFWPVGEAGDFRGLARINNDGEVEEYIHFTRTAGGSTIAPEDFYTPEEAIEREGDVWENATEEAELLAADGAVHDQELFLNCTTSPLIFASAMLNFGVHQILDTLCQLAPSPAGRDADPKALEAATSAMDDHRDTTDDFSGVVFKVQAGMDKNHRDTLAFMRVVSGEFDRGMQVTHSQSGRSFSTKYALTVFGRTRSTVETAFPGDIVGLVNAGALAPGDTIFEGRKIQYPPMPKFAPEHFRILRAKSLGKYKQFRKALEQLDSEGVVQILKNDLRGDANPVMAAVGPMQFEVMQARMEVEYNVETVADPIPYSVARRTTAETAPELAKQRGVEIFTRTDGELIALFSDKWRLSFIEKEHPDFVLESLVAE | failed |
| MSNARIGIDMSKIYAPKSIDLSSFQLPDEKLQTKYGLPHKVEFCKSCVISNQRPNSAVEYEHKKESKKHTIHFDDEGICDACRVAERKKSTINWEERDRQLRELCDRFRSKDGSYDCVVPGSGGKDSFYAAHILKYKYGMNPLTVTWAPHMYTPWGWRNFQSWIHAGFDNHLFTPNGRVHRLLTRLAVENLFHPFQPFMIGQKAYAPKMALLHKIKLVVYGENEAEYGNPIGDTESAKRDWKYFTADDKSKIFLGGTSVQELKSDFGLNDNDLDAYLPADPQQIEEQQVEVHYLGYYLKWHPQSCYYYSVEHGGFEASPERTPGTYSKYNSIDDKIDDFHYYTTLTKFGIGRATYDASQEIRSGDITVEEGVALVKRFDQEFPERFAEEIFKYLSINLKEFPIASQMFEQPIMDRAYFMALADTFRSPHLWKKDGEQWKLRHQVTNLEKTKAEYLDLETV | not failed |
| MSNEHQLLVGLLKKLKDDALILPTLPEVAMRVQEVVGRPDSSLKQVAEIIGQDAAISARIIKVANSALYSRGVPAENINSAVTRIGLTQIKSIATSVAMEQLFISTNEMVWEVMDEVWRTSIDVTAAACSLLQIYNKKHPGSGLNYDTLTLAGLVHNIGALPVLTEAEAHPEMFTTIEHLRSLVRKMQGPIGRAVLKSWDFAPEVMEVVERWADLPYLGDHVSYLDFIRAAAFYTGELRAGNELEQRLDVFVKRGLPVSPEDLGSDAFLDSYHSIKASYE | not failed |
| MSNIFLSLEPKILWSHFYRLTQIPRPSGHEEAVRTYVADVAKRCGLEWLVDEAGNIIVRKPASAGMERRRGVILQAHLDMVPQKNAGTAHDFTKDPIDAVIDGEWVHARGTTLGADNGIGVAAALAVLESDDLRHGPLEALFTVNEEAGMTGALGLKPGVLRGDILLNLDSEDEGELFIGCAGGLDGTMRFDYSCEPLPPGYSGIEIRVSGLRGGHSGMDIDLGRGNANKIMNRLLQMGREHHGLLLASIDGGSLRNAIPRESVALVAVPSAQKVAFLDELHSLASAIGLELNGVDPELRVEAADAALPVGMIDDTVAQRLFDAVAACPNGVHRMSEAMAGLVETSNNLARVHSDGRAVSVECLLRSASVEGMRELADAVAGIAERAGTVAAFENGYPGWKPNPASPILKCMVKVYRDRFGKTPEIRAVHAGLECGIIGANNPQLDMISFGPTIRHPHSPDEKVECSSVLKFWELLVATLEEVPEPLEHHHHHH | failed |
| MSNIITYLKNNSNLTFDELALNDVDILCLNEFGYISFEKLINTTEMKSVLVCELYHEYLQTMAKSYSFMFTSQRHDLCQLMMTSKRFKNLTLSYYRAEISLEFEKQFAAMVFTIPNINYHQVVFRGTDANLIGWKEDFKLTYMREISAHRSAIKYLNTILPYFDKVVLSGHSKGGNLALYAAMFTKPDLKAKIDLIWLIDSPGLQKTLLPTTEYKTTKQKCIRLLPEESIVGMMLYSDIEPLIISSNARGILQHDVTTWEIQEPAILKTGTGLSLKSICFEKTFQQWMAELKSQERKLFFDLLFDSFLSSGVSSLDDFNLASRAKMMKAFHSFRELDDDKKRLFNKSLKLLVTIFWGAYHDNSRETK | failed |
| MSNLPLISVVIPTYGREEILRDSIVDVLNQDYPKYEVLVVDQSPKHKPEIETYLEEVAAAGKVKWFRLDWASLPGARNYAIRRASGEIILFIDDDVKLKPGFLAAHAKNYVQNPDVGSVAGRVFDRMKLGDSGGNLEIEYLPPEAMDPGVAWYHIDLVHTIKPQQVLTARGCNMSFRREIFTKHGLRFDERFRGSAVREESDFCLRLRQTGYKIWYDPEADLIHLGEETGGCHDISMRSLKYQFTFYHNHFLLGLKNLNFSQALRLYARLFDCHVLGRPPCHKSGSPIKIITRGIFYILGFFRALGSVIQSNWHDGQIYSRLDQESIIKSQESMVNS | failed |
| MSNNMQTVRESYEAFHRRDLPGVLAALAPDVRWTHPDGMSPYGLGGTKHGHDEVIAFIRHVPTHIAEMRLAPDEFIESGERIVVLGTRRVTAVNGRSATLKFVHVWRFENGRAVTFEDHFDTAEMIRLITA | not failed |
| MSNPLGELVKALEKLSFKPSDVRIYSLLLERGGMRVSEIARELDLSARFVRDRLKVLLKRGFVRREIVEKGWVGYIYSAEKPEKVLKEFKSSILGEIERIEKMFTD | not failed |
| MSNPQPEKVRVVVGDDHPLFREGVVRALSLSGSVNVVGEADDGAAALELIKAHLPDVALLDYRMPGMDGAQVAAAVRSYELPTRVLLISAHDEPAIVYQALQQGAAGFLLKDSTRTEIVKAVLDCAKGRDVVAPSLVGGLAGEIRQRAAPVAPVLSAREREVLNRIACGQSIPAIAAELYVAPSTVKTHVQRLYEKLGVSDRAAAVAEAMRQRLLD | not failed |
| MSNTTRQAGSQGSLDAFFKITQRGSNVRQEVLAGLTTFLAMVYSVIVVPSMLGKAGFPPTAVFVATCLVAGLGSLLMGLWANLPMAIGCAISLTAFTAFSLVLGQQISIPVALGAIFLMGVLFTIISVTGIRSWILRNLPLGVAHGTGIGIGLFLLIIAANGVGLVVKNPIDGLPVALGNFTSFPVIMSLLGLAATIGLEKRRVPGGILLVIVVISILGLIFDPNVKYAGFFALPSLTAADGSSLIFSLDIMGALQPLVLPSVLALVMTAVFDATGTIRAVAGQANLLDKDGQIINGGKALTADSVSSIFCSLVGTSPAAVYIESAAGTAAGGKTGLTATVVGVLFLLLLFVSPLAYLVPGYATAPALMYVGLLMLGNVSKLNFDDFVDAMSGLVCAVFIVLTCNIVTGIMLGFGALVLGRICSGEWRKLNIGTVIIAVALVAFYAGGWAL | failed |
| MSNVRVLATDLAFPEGPVVMPDGSVVLVEIRAQQLTRVWPDGRKEVVAKVPGGPNGAALGPDGKMYICNNGGFGWFPSRGTMMPGAPAPHEYIGGSIQRVDLQSGEVETLFDKCGEHPLKGPNDLVFDKHGGLWFTDLGKRRARDMDVGAAYYIKPGMTEITEQVFGTLPLNGIGLSPDEATMYAAETPTGRLWAFDLSGPGEVKPRDVIYRGEKGKPICGLGGYQMFDSLAVEASGNVCVATLVSGCISVIAPDGTLVEQVPTGDRVTTNIAFGGPDLKTAYITLSGKGELIAMDWSRPGLPLNFLNK | failed |
| MSNYEKVYIGTYTNGESRGIYSFNIISDSRKTTAPILSCEIENPTYLTFNMNNKTAYSVIKSGNLGGAASFYVDDRNNHLELLNCKFGYENPPERFSGKQPCYVSLDKTNSYLFSVNYHTSRVDVFPIRNDGSIDTVSSFVIHEGFGPNKERQETSHVHCAVTTPLNDFLCVVDLGTDKIVLYRFDDGILCRFNEFKLKPGCGPRHIIFHPNGKIAYIATELSSEVIVLKYSPLDGSFEELQYVSCLPTDYTGKNGSAAIHISRNSNYLYVSNRGHNSISCFHVDNSTGLLTLNSNTSTYGLSPRDFDLSSSGNLLIAANQDSSNLTIFSVDQVSGNLSKITSDIYVPNPVCVKFYHDKLEHHHHHH | failed |
| MSPEAKEAQDSRRNEMPEKKRAVLRKAIKLEWATIAWVLFSIVLVGVVAGQSQAMRSAWIEDMLSLVPPIAFLLASRISKAVATRKHPYGKHRSIAIGHQAAALALLIMGSLLIYEAVSALIKGERPPIGLAILFGHDVWSGWLMIGVMISVSIPMVIVGRVKINLAKDLHDKLLYADADMAKADWGTAVASTVGVLGIGLGFWWADAVAALVISASILRDGVINMKAAISDLGDGRAMTYDNSAPHPLNDDVEKAALEMHWVKHARARIRDQGRCFHTELFVEPVEGYTPAPEEITSLVKRIQNLDWKLQDVVASVVEKIDRFQAPS | failed |
| MSPFDTPRRLVAEALGTALLLAVVVGSGIMGERLSDGNIAIALLGNTLATGAALVVLIWVFGPISGAHFNPAVTLVAALRRELPLTLALAYPLAQILGGIAGVWTAHAMFGEPILQVSTKLRSGGDQAFAEVVATFGLLATILGVSRFRPESTPMAVGLYITAAYWFTASTSFANPAVTVARSLSDSFAGIAPASAPAFILAQLVGALSAAALFGWLLKTDTSR | failed |
| MSPFTGSAAPTPEWRHLRVEITDGVATVTLARPDKLNALTFEAYADLRDLLAELSRRRAVRALVLAGEGRGFCSGGDVDEIIGATLSMDTARLLDFNRMTGQVVRAVRECPFPVIAALHGVAAGAGAVLALAADFRVADPSTRFAFLFTRVGLSGGDMGAAYLLPRVVGLGHATRLLMLGDTVRAPEAERIGLISELTEEGRADEAARTLARRLADGPALAHAQTKALLTAELDMPLAAAVELDASTQALLMTGEDYAEFHAAFTEKRPPKWQGR | not failed |
| MSPPPAPNPIRDSLIARADALREGGAPAEARDLYRLVLDRHPGHGPALAGLGRILLGLGQPTAALESLGAAVAADPTRLDWLADLAVALAGARRPAEALSAAEGLPATAGALGFRADRLEELGRRDQAIALLDDALRRHPDEAELHRRQGVLLRRAGRAAQAIAPWRALVALRPGDAAAWSSLGAGLGESGLDEEAEKALRRAVALAADEPDWTYNLAHFLIERDRLEDALPLLDAAVARAPERAHYHTNLGVCRLGLGDIKGAIAAHRQALALDPDEPEARYDLAWALLLAGAWEEGWAAHEARWRMGRFTGRRAAGPAPTDWPMPLWDGQPLGPGRTLLLHAEQGFGDSLMMSRLIIPALARAGDAQGIIECPPSLVGLLAQSLGPALGPAVRVVAQAESPPAADAHLPLMSLPHRLGVDSETIPGPDRWLRAEPAPRPPSSPPRVGLVWAGDPGNRMDRLRSCPATALRPLFDRVKDAGLDIAWTGLQLGPPAADLPDLPAALAPGGDFAATARVVAALDLVIGVDTAVIHLAGGLGVETWVMLAYVPDYRWMMDRDDSPWYPSARLFRQSRRGDWRGVIAQVAAALTKRFG | failed |
